Test results reported in the RNAGym collection of RNA variant scans (doi:10.7554/elife.80360).

B1: HDV Ribozyme (parent)
chain: GGCCGGCAUGGUCCCAGCCUCCUCGCUGGCGCCGGCUGGGCAACAUUCCGAGGGGACCGUCCCCUCGGUAAUGGCGAAUGGGACCCA

Variants of: B1
Assay: self-cleavage, relative activity (ratio to wild type); higher = more cleavage; co-transcriptional

Variant | self-cleavage
GGCCGGUAUGGUCCCAGCCUCCUCGCUGGCGCCGGCUGGGCAACAUUCCGAGGGGACCGUCCCCGCGGUAAUGGCGAAUGGGACCCA | 0.856
GGCCGGCCUGGUCCCAGCCUCCUCGCUGGCGCCGGCUGGGCAGCAUUCCGAGGGGACCGUCCCCUCGGUAAUGGCGAAUGGGACCCA | 0.151
GGCCGGCCUGGUCCCAGCCUCCUCGCUGGCGCCGGCUGGGCACCAUUCCGAGGGGACCGUCCCCUCGGUAAUGGCGAAUGGGACCCA | 0.185
GGCCGGUAUGGUCCCAGCCUCCCCGCUGGCGCCGGCUGGGCAACAUUCCGAGGGGACCGUCCCCUCGGUAAUGGCGAAUGGGACCCA | 0.516
GGCCGGUAUGGUCCCAGCCUCCACGCUGGCGCCGGCUGGGCAACAUUCCGAGGGGACCGUCCCCUCGGUAAUGGCGAAUGGGACCCA | 0.923
GGCCGGCCUGGUCCCAGCCUCCUCGCUGGCGCCGGCUGGGCAACAUUCCGAGGGGACCGUCCCCUCGGUCAUGGCGAAUGGGACCCA | 0.612
GGCCGGCCUGGUCCCAGCCUCCUCGCUGGGGCCGGCUGGGCAACAUUCCGAGGGGACCGUCCCCUCGGUAAUGGCGAAUGGGACCCA | 0
GGCCGGCCUGGUCCCAGCCUCCUCGCUGGCGCCGGCUGGGCAACAUUCCGAGGGGACCGUCCCCUCGGUAUUGGCGAAUGGGACCCA | 0.427
GGCCGGCCUGGUCCCAGCCUCCUCGCUGGCGCCGGCUGGGCAACAUUCCGAGGGGACCGUCCCCUCGGUACUGGCGAAUGGGACCCA | 0.308
GGCCGGCCUGGUCCCAGCCUCGUCGCUGGCGCCGGCUGGGCAACAUUCCGAGGGGACCGUCCCCUCGGUAAUGGCGAAUGGGACCCA | 0.0791
GGCCGGCCUGGUCCCAGCCUCCUAGCUGGCGCCGGCUGGGCAACAUUCCGAGGGGACCGUCCCCUCGGUAAUGGCGAAUGGGACCCA | 0.434
GGCCGGCCUGGUCCCAGCCUCCUUGCUGGCGCCGGCUGGGCAACAUUCCGAGGGGACCGUCCCCUCGGUAAUGGCGAAUGGGACCCA | 0.396
GGCCGGCCUGGUCCCAGCCUCCUCGCUGGCGCCGGCUGGGUAACAUUCCGAGGGGACCGUCCCCUCGGUAAUGGCGAAUGGGACCCA | 0.748
GGCCGGCCUGGUCCCAGCCUCCUCGCUGGCGCCGGCUGGGCGACAUUCCGAGGGGACCGUCCCCUCGGUAAUGGCGAAUGGGACCCA | 0.462
GGCCGGCCUGGUCCCAGCCUCCUCGCUGGCGCCGGCUGGGCAACAUUCGGAGGGGACCGUCCCCUCGGUAAUGGCGAAUGGGACCCA | 0.475
GGCCGGCCUGGUCCCAGCCUCCUCGCUGGCGCCGGCUGGGCAACAUUCUGAGGGGACCGUCCCCUCGGUAAUGGCGAAUGGGACCCA | 0.567
GGCCGGCCUGGUCCUAGCCUCCUCGCUGGCGCCGGCUGGGCAACAUUCCGAGGGGACCGUCCCCUCGGUAAUGGCGAAUGGGACCCA | 0.604
GGCCGGCCUGGUCCGAGCCUCCUCGCUGGCGCCGGCUGGGCAACAUUCCGAGGGGACCGUCCCCUCGGUAAUGGCGAAUGGGACCCA | 0.378
GGCCGGCCUGGUCACAGCCUCCUCGCUGGCGCCGGCUGGGCAACAUUCCGAGGGGACCGUCCCCUCGGUAAUGGCGAAUGGGACCCA | 0.375
GGCCGGCCUGGUCUCAGCCUCCUCGCUGGCGCCGGCUGGGCAACAUUCCGAGGGGACCGUCCCCUCGGUAAUGGCGAAUGGGACCCA | 0.831
GGCCGGCCUGGUCGCAGCCUCCUCGCUGGCGCCGGCUGGGCAACAUUCCGAGGGGACCGUCCCCUCGGUAAUGGCGAAUGGGACCCA | 0.237
GGCCGGCCUGGUCCCAGCGUCCUCGCUGGCGCCGGCUGGGCAACAUUCCGAGGGGACCGUCCCCUCGGUAAUGGCGAAUGGGACCCA | 0.115

Variant | self-cleavage
GGCCGGCCUGGUCCCAGCUUCCUCGCUGGCGCCGGCUGGGCAACAUUCCGAGGGGACCGUCCCCUCGGUAAUGGCGAAUGGGACCCA | 0.0739
GGCCGGCCUGGUCCCAGCCUCCUCGCUGGCGCCGGCUGGGCAACAUUCCGAGGGGAACGUCCCCUCGGUAAUGGCGAAUGGGACCCA | 0.89
GGCCGGCCUGGUCCCAGCCUCCUCGCUGGCGCCGGCUGGGCAAGAUUCCGAGGGGACCGUCCCCUCGGUAAUGGCGAAUGGGACCCA | 0.401
GGCCGGCCUGGUCCCAGCCUCCUCGCUGGCGCCGGCUGGGCAAAAUUCCGAGGGGACCGUCCCCUCGGUAAUGGCGAAUGGGACCCA | 0.222
GGCCGGCCUGGUCCCAGCCUCCUCGCUGGCGCCGGCUGGGCAACAUUCCGAGGGGGCCGUCCCCUCGGUAAUGGCGAAUGGGACCCA | 0.939
GGCCGGUAUGGUCCCAGCCUCCUCGCUGGCGCCGGCUGGGCAACAUUCCGAGGGGACCGUCCCCUCGGGAAUGGCGAAUGGGACCCA | 0.855
GGCCGGCCUGGUCCCAGCCUCCUCGCUGGCGCCGGCUGGGCAACAUUCCGAGGGGACCGUCCCCUCGGUAAUGGCGAGUGGGACCCA | 0.35
GGCCGGCCUGGUCCCAGCCUCCUCGCUGGCGCCGGCUGGGCAACAUUCCGAGGGGACCGUCCCCUCGGUAAUGGCGAUUGGGACCCA | 0.119
GGCCGGUAUGGUCCCAGCCUCCUCGCUGGCGCCGGCUGGGCAACAUACCGAGGGGACCGUCCCCUCGGUAAUGGCGAAUGGGACCCA | 0.554
GGCCGGUAUGGUCCCAGCCUCCUCGCUGGCGCCGGCUGGGCAACAUGCCGAGGGGACCGUCCCCUCGGUAAUGGCGAAUGGGACCCA | 0.9
GGCCGGUAUGGUCCCAGCCUCCUCGCUGGCGCCGGCUGGGCAACAUUCCGAGGGGACCGUCCCCUCGGUAAUGGCGAACGGGACCCA | 0.126
GGCCGGUAUGGUCCCAGCCUCCUCGCUGGCGCCGGCUGGGCAACAUUCCGAGGGGACCGUCCCCUCGGUAAUGGCGAAGGGGACCCA | 0.434
GGCCGGCCUGGUCCCAGCCUACUCGCUGGCGCCGGCUGGGCAACAUUCCGAGGGGACCGUCCCCUCGGUAAUGGCGAAUGGGACCCA | 0.0449
GGCCGGCCUGGUCCCAGCCUCCUCGCUGGCGCAGGCUGGGCAACAUUCCGAGGGGACCGUCCCCUCGGUAAUGGCGAAUGGGACCCA | 0.0504
GGCCGGCCUGGUCCCAGCCUCCUCGCUGGCGCUGGCUGGGCAACAUUCCGAGGGGACCGUCCCCUCGGUAAUGGCGAAUGGGACCCA | 0.554
GGCCGGCCUGGUCCCAGCCUCCUCGCUGGCGCCGGCUGGGCAACAUUCCGAGGGGACCGUCCCCUCGGUAAUGGCGAAUGGGACCCA | 0.859
GGCCGGUAUGGUCCCAGCCGCCUCGCUGGCGCCGGCUGGGCAACAUUCCGAGGGGACCGUCCCCUCGGUAAUGGCGAAUGGGACCCA | 0.133
GGCCGGUAUGGUCCCAGCCCCCUCGCUGGCGCCGGCUGGGCAACAUUCCGAGGGGACCGUCCCCUCGGUAAUGGCGAAUGGGACCCA | 0
GGCCGGCCUGGUCCCAGCCUCCUCGCUGGCGACGGCUGGGCAACAUUCCGAGGGGACCGUCCCCUCGGUAAUGGCGAAUGGGACCCA | 0.119
GGCCGGUAUGGUCCCAGCCUCCUCGCUGGCGCCGGCUGGGCAACAUUCCGAGGGGACCGUCCCCUCGGUAAGGGCGAAUGGGACCCA | 0.332
GGCCGGUAUGGUCCCAGCCUCCUCGCUGGCGCCGGCUGGGCAACAUUCCGAGGGGACCGUCCCCUCGGUAACGGCGAAUGGGACCCA | 0.268
GGCCGGUAUGGUCCCAGCCUCCUCGCUGGCGCCGGCUGGGCAACAUUCCGAGGGGACCGUCCCCUCGGUAAAGGCGAAUGGGACCCA | 0.604

Variant | self-cleavage
GGCCGGCCUGGUCCCAGCCUCCUCGAUGGCGCCGGCUGGGCAACAUUCCGAGGGGACCGUCCCCUCGGUAAUGGCGAAUGGGACCCA | 0.629
GGCCGGUAUGGUCCCAGCCUCCUCGCUGGCGCCGGCUGGGCAACAAUCCGAGGGGACCGUCCCCUCGGUAAUGGCGAAUGGGACCCA | 0.623
GGCCGGUAUGGUCCCAGCCUCCUCGCUGGCGCCGGCUGGGCAACACUCCGAGGGGACCGUCCCCUCGGUAAUGGCGAAUGGGACCCA | 0.447
GGCCGGCCUGGUCCCAGCCUCCUCGCUGGCGCCGGCUGGGCAACAUUACGAGGGGACCGUCCCCUCGGUAAUGGCGAAUGGGACCCA | 1.35
GGCCGGCCUGGUCCCAGCCUCCUCGCUGGCGCCGGCUGGGCAACCUUCCGAGGGGACCGUCCCCUCGGUAAUGGCGAAUGGGACCCA | 0.156
GGCCGGCCUGGUCCCAGCCUCCUCGCUGGCGCCGGCUGGGCAACUUUCCGAGGGGACCGUCCCCUCGGUAAUGGCGAAUGGGACCCA | 0.429
GGCCGGCCUGGUACCAGCCUCCUCGCUGGCGCCGGCUGGGCAACAUUCCGAGGGGACCGUCCCCUCGGUAAUGGCGAAUGGGACCCA | 0.266
GGCCGGCCUGGUUCCAGCCUCCUCGCUGGCGCCGGCUGGGCAACAUUCCGAGGGGACCGUCCCCUCGGUAAUGGCGAAUGGGACCCA | 0.356
GGCCGGCCUGGUCCCAGUCUCCUCGCUGGCGCCGGCUGGGCAACAUUCCGAGGGGACCGUCCCCUCGGUAAUGGCGAAUGGGACCCA | 0.369
GGCCGGCCUGGUCCCAGGCUCCUCGCUGGCGCCGGCUGGGCAACAUUCCGAGGGGACCGUCCCCUCGGUAAUGGCGAAUGGGACCCA | 0.0875
GGCCGGUAUGGUCCCAGCCUCCUCGCUGGCGCCGGCAGGGCAACAUUCCGAGGGGACCGUCCCCUCGGUAAUGGCGAAUGGGACCCA | 0.0739
GGCCGGUAUGGUCCCAGCCUCCUCGCUGGCGCCGGCCGGGCAACAUUCCGAGGGGACCGUCCCCUCGGUAAUGGCGAAUGGGACCCA | 1.14
GGCCGGCCUGGUCCCAGCCUCCUCGCUGGCGCCGGGUGGGCAACAUUCCGAGGGGACCGUCCCCUCGGUAAUGGCGAAUGGGACCCA | 0
GGCCGGCCUGGUCCCAGCCUCCUCGCUGGCGCCGGAUGGGCAACAUUCCGAGGGGACCGUCCCCUCGGUAAUGGCGAAUGGGACCCA | 0
GGCCGGUAUGGUCCCAGCCUCCUCGCCGGCGCCGGCUGGGCAACAUUCCGAGGGGACCGUCCCCUCGGUAAUGGCGAAUGGGACCCA | 0.404
GGCCGGUAUGGUCCCAGCCUCCUCGCAGGCGCCGGCUGGGCAACAUUCCGAGGGGACCGUCCCCUCGGUAAUGGCGAAUGGGACCCA | 0.519
GGCCGGCCUGGUCCCAGCCUCCUCGCUGGCGCCGGCUGGGCAACAUUCCGAGGGGACCGUCCCCUCGGUAAUGGCGGAUGGGACCCA | 0.798
GGCCGGCCUGGUCCCAGCCUCCUCGCUGGCGCCGGCUGGGCAACAUUCCGCGGGGACCGUCCCCUCGGUAAUGGCGAAUGGGACCCA | 0.802
GGCCGGCCUGGUCCCAGCCUCCUCGCUGGCGCCGGCUGGGCAACAUUCCGGGGGGACCGUCCCCUCGGUAAUGGCGAAUGGGACCCA | 0.997
GGCCGGCCUGGUCCCUGCCUCCUCGCUGGCGCCGGCUGGGCAACAUUCCGAGGGGACCGUCCCCUCGGUAAUGGCGAAUGGGACCCA | 1.16
